Source: patent US20170368208A1, “CANCER IMAGING AGENT” (ENDOCYTE, INC., priority 2015, published 2017)
*1 amine or outer side, *2 acyl side, *3 side chain or, on linkers, in order; H or OH if unused. Where a SMILES comes first, the peptide text is derived from it. Side-chain parts run from the residue outwards. [ ]: non-standard residue; d: D form. ξ: configuration not given here. γGlu = O=C(O)[C@H](CCC(=O)[*:2])N[*:1]; ξE = NC(CCC(=O)O)C(=O)O; Dap = NC[C@H](N)C(=O)O; Aoc = NCCCCCCCC(=O)O; CO = O=C([*:1])[*:2]

Assay: Radiochemical purity and stability of 99mTc-Compound II after room temperature labelling of kit formulations (radio-HPLC)
Format: physicochemical
Settings: 0.1 mg tin chloride
Experimental: A Compound II kit vial from Example 2 was removed from the refrigerator and allowed to warm to room temperature (17-27° C.) for 15-30 min. The vial was put into a suitable radioactive shielding container. One to Two milliliter (≦50 mCi) of ^99mTc pertechnetate injection was added to the vial using a lead shielded syringe. Before removing the syringe from the vial, equal volume of headspace was withdrawn in order to normalize the pressure inside the vial. The vial was gently swirled to completely dissolve the powder and then allowed to stand at ambient temperature (17-27° C.) for 15 minutes. 5-6 mL of 0.9% sodium chloride injection, USP, was then added to the vial. The labeled solution was stored at room temperature (17-27° C.) and used within 6 hours of preparation. The Radio-HPLC system used for the following experiment consisted of a Waters 600 intelligent pump, a Bioscan Flow-Count radiodetector, and a Waters Nova-Pak C18 (3.9×150 mm) column, using Laura v1.5 radiochromatogram software. 1-5 μL of the ^99mTc-Compound II sample was injected into the HPLC and eluted with an aqueous mobile phase 0.1% trifluoroacetic acid in water (A) and Acetonitrile (B) at a linear gradient of 25% B to 35% B over 20 minutes at a flow rate of 1 mL/min. […] The radiochemical purity of ^99mTc-Compound II was calculated as follows: Radiochemical purity=isomer A %+isomer B % (FIG. 1) Using the methods described herein, Compound II was subjected to room temperature labelling at varying pH. Using the methods described herein, Compound II was subjected to room temperature labelling with varying amounts of EDTA. Using the methods described herein, Compound II was subjected to room temperature labelling with varying amounts of sodium gluconate.

Compound: N[C@@H](CNC(=O)[C@H](Cc1ccccc1)NC(=O)[C@H](Cc1ccccc1)NC(=O)CCCCCCCNC(=O)CC[C@H](NC(=O)NC(CCC(=O)O)C(=O)O)C(=O)O)C(=O)N[C@@H](CC(=O)O)C(=O)N[C@@H](CS)C(=O)O (stereo partly drawn) [EC0652] (H-[Dap]([Phe-Phe-Aoc-γGlu-CO-ξE])-Asp-Cys-OH)
- RCP (%) Time (6 Hr) (kit 0.1 mg EC0652, 1 mg sodium gluconate, 0.3 mg EDTA, pH 6.8, 6 Hr): 91.7%
- RCP (%) Time (6 Hr) (kit 0.1 mg EC0652, 20 mg sodium gluconate, 0.3 mg EDTA, pH 6.8, 6 Hr): 97.9%
- RCP (%) Time (0 Hr) (kit 0.1 mg EC0652, 25 mg sodium gluconate, 0 mg EDTA, pH 6.8, 0 Hr): 85.37%
- RCP (%) Time (6 Hr) (kit 0.1 mg EC0652, 25 mg sodium gluconate, 0 mg EDTA, pH 6.8, 6 Hr): 88.06%
- RCP (%) Time (0 Hr) (kit 0.1 mg EC0652, 25 mg sodium gluconate, 0.005 mg EDTA, pH 6.8, 0 Hr): 83.69%
- RCP (%) Time (6 Hr) (kit 0.1 mg EC0652, 25 mg sodium gluconate, 0.005 mg EDTA, pH 6.8, 6 Hr): 74.46%
- RCP (%) Time (0 Hr) (kit 0.1 mg EC0652, 25 mg sodium gluconate, 0.01 mg EDTA, pH 6.8, 0 Hr): 85.92%
- RCP (%) Time (6 Hr) (kit 0.1 mg EC0652, 25 mg sodium gluconate, 0.01 mg EDTA, pH 6.8, 6 Hr): 94.03%
- RCP (%) Time (0 Hr) (kit 0.1 mg EC0652, 25 mg sodium gluconate, 0.1 mg EDTA, pH 6.8, 0 Hr): 95.77%
- RCP (%) Time (6 Hr) (kit 0.1 mg EC0652, 25 mg sodium gluconate, 0.1 mg EDTA, pH 6.8, 6 Hr): 95.33%
- RCP (%) Time (0 Hr) (kit 0.1 mg EC0652, 25 mg sodium gluconate, 0.30 mg EDTA, pH 6.8, 0 Hr (Table 5)): 97.02%
- RCP (%) Time (6 Hr) (kit 0.1 mg EC0652, 25 mg sodium gluconate, 0.30 mg EDTA, pH 6.8, 6 Hr (Table 5)): 97.49%
- RCP (%) Time (6 Hr) (kit 0.1 mg EC0652, 25 mg sodium gluconate, 0.3 mg EDTA, pH 6.8, 6 Hr (Table 6)): 98.5%
- Radiochemical Purity (%) Time (0 Hr) (kit 0.1 mg EC0652, 25 mg sodium gluconate, 0.3 mg EDTA, pH 5.1, 0 Hr after room temperature 99mTc labelling): 97.7%
- Radiochemical Purity (%) Time (6 Hr) (kit 0.1 mg EC0652, 25 mg sodium gluconate, 0.3 mg EDTA, pH 5.1, 6 Hr after room temperature 99mTc labelling): 85.5%
- Radiochemical Purity (%) Time (0 Hr) (kit 0.1 mg EC0652, 25 mg sodium gluconate, 0.3 mg EDTA, pH 6.2, 0 Hr): 96.8%
- Radiochemical Purity (%) Time (6 Hr) (kit 0.1 mg EC0652, 25 mg sodium gluconate, 0.3 mg EDTA, pH 6.2, 6 Hr): 94.1%
- Radiochemical Purity (%) Time (0 Hr) (kit 0.1 mg EC0652, 25 mg sodium gluconate, 0.3 mg EDTA, pH 6.8, 0 Hr (Table 3)): 97.4%
- Radiochemical Purity (%) Time (6 Hr) (kit 0.1 mg EC0652, 25 mg sodium gluconate, 0.3 mg EDTA, pH 6.8, 6 Hr (Table 3)): 94.8%
- Radiochemical Purity (%) Time (0 Hr) (kit 0.1 mg EC0652, 25 mg sodium gluconate, 0.3 mg EDTA, pH 7.4, 0 Hr): 96.5%
- Radiochemical Purity (%) Time (6 Hr) (kit 0.1 mg EC0652, 25 mg sodium gluconate, 0.3 mg EDTA, pH 7.4, 6 Hr): 96.0%
- RCP (%) Time (0 Hr) (kit 0.1 mg EC0652, 25 mg sodium gluconate, 1.0 mg EDTA, pH 6.8, 0 Hr): 96.69%
- RCP (%) Time (6 Hr) (kit 0.1 mg EC0652, 25 mg sodium gluconate, 1.0 mg EDTA, pH 6.8, 6 Hr): 96.87%
- RCP (%) Time (6 Hr) (kit 0.1 mg EC0652, 30 mg sodium gluconate, 0.3 mg EDTA, pH 6.8, 6 Hr): 97.0%
- RCP (%) Time (6 Hr) (kit 0.1 mg EC0652, 50 mg sodium gluconate, 0.3 mg EDTA, pH 6.8, 6 Hr): 98.0%
